The record followed here is paper PMC4922585.

The target of test [1] is TF G164A-FVIIa complex on THP-1 cells (UniProt P13726).
Test [2] deals with TF S160A-FVIIa complex on THP-1 cells (UniProt P13726).
Test [3] concerns the target Wild-type TF-FVIIa complex on THP-1 cells (UniProt P13726).
For test [4], the target named is TFLBR-FVIIa complex on THP-1 cells (UniProt P13726).
Test [5] has as its target Wild-type TF-FVIIa complex on THP-1 cells (UniProt P13726). This is another data set of the same source.

For the substance “Purified human factor X (natural protein)”, the values for the Km of FX activation by TF-FVIIa on THP-1 cells (Michaelis-Menten kinetics) in test [1], in test [2] and in test [3] were 0.191 µM, 0.117 µM and 0.134 µM, respectively. For the same substance, the Km of FX activation by TF-FVIIa on THP-1 cells treated with HgCl2 (100 μM, 5 min) (FVIIa 10 nM, FX 25 to 1000 nM) in test [4] amounted to 0.223 µM; in test [5] it was 0.137 µM. The Km of FX activation by TF-FVIIa on THP-1 cells treated with control vehicle (FVIIa 10 nM, FX 25 to 1000 nM) in test [4] came to 0.196 µM; in test [5] it was 0.187 µM.
